The results in this text go back to IntAct's records for PubMed 31217420.

The labels stand for the following.
B1: Acid sphingomyelinase-like phosphodiesterase 3b (Homo sapiens), Q92485-2 (parent)
chain: MRLLAWLIFLANWGGARAEPGKFWHIADLHLDPDYKVSKDPFQVCPSAGSQPVPDAGPWGDYLCDSPWALINSSIYAMKEIEPEPDFILWTGDDTPHVPDEKLGEAAVLEIVERLTKLIREVFPDTKVYAALGNHDFHPKNQFPAGSNNIYNQIAELWKPWLSNESIALFKKGAFYCEKLPGPSGAGRIVVLNTNLYYTSNALTADMADPGQQFQWLEDVLTDASKAGDMVYIVGHVPPGFFEKTQNKAWFREGFNEKYLKVVRKHHRVIAGQFFGHHHTDSFRMLYDDAGVPISAMFITPGVTPWKTTLPGVVNGANNPAIRVFEYDRATLSLKVRSPAEARGGGWEGLKCITTFPHSQLIHLPLTTEPQEG

The variants in the first experiment derive from B1. Particulars: with INSR.
As to H135A, the “effect of a mutation on the interaction” value is listed as “with no effect”.

The variants in another experiment derive from B1. As to conditions: with INSR. This is another data set of the same source.
Take H135A: the “effect of a mutation on the interaction” value is on record as “with no effect”.

Variants of B1 are the subject of the next experiment. Particulars: with CAV1, Q03135-1.
Sequence of CAV1, Q03135-1 (Q03135 whole entry): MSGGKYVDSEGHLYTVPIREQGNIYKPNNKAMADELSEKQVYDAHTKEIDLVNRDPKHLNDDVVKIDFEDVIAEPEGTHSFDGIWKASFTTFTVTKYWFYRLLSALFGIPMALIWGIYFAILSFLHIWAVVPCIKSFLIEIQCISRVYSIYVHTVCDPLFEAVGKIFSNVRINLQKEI
Consider H135A, for which the “effect of a mutation on the interaction” value is given as “with no effect”.
